Experimental data as given in patent US20060141569A1 (published 2006).

Tests used:
[1] = target: T1, C5aR transfected into CHEM-1 cells using the pHS vector (UniProt P21730 1-350); assay: binding
T1 chain: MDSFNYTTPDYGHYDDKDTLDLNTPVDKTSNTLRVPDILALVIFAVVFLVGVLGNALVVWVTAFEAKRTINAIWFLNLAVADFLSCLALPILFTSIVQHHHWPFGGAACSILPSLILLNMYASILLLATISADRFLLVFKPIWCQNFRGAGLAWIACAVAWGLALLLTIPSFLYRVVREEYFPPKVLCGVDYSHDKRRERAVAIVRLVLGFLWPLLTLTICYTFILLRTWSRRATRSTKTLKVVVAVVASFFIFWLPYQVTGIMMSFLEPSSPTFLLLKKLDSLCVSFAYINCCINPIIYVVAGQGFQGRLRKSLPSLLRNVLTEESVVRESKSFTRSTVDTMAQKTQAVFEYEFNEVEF

C5aR+Gα15/CHO [2] = assay: binding; two sites, site 2
C5aR+Gα15/CHO [3] = assay: binding; two sites, site 1

B1: C5a (ligand)
chain: TLQKKIEEIAAKYKHSVVKKCCYDGACVNNDETCEQRAARISLGPRCIKAFTECCVVASQLRANISHKDMQLGR
B1 gave a Ki [1] of 0.5 nM, a Ki (C5aR+Gα15/CHO [2]) of 34 nM and a Ki (C5aR+Gα15/CHO [3]) of 0.6 nM.
